Measured values from PMC5693944, “Ml proteins from Mesorhizobium loti and MucR from Brucella abortus: an AT-rich core DNA-target site and oligomerization ability”.

Key:
Ml2 = target: T1, Ml2 (Mesorhizobium loti, UniProt A0A1A5JHX8 1-141); test: EMSA; settings: protein: recombinant; chain copies: 10
T1 sequence: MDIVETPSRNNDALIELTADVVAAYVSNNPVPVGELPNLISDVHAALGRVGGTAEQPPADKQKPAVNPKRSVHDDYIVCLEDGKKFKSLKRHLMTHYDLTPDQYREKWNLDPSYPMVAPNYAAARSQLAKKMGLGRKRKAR

MucR = MucR (Brucella abortus 2308, UniProt Q2YMR3 1-142); test: EMSA; settings: protein: recombinant; chain copies: 10; blunt

B1: Seq1.2 (dsDNA)
DNA 1: CCACTGACCGCGTCGCGTCA
DNA 2: TGACGCGACGCGGTCAGTGG
Ml2
  binding result: no binding
MucR
  binding result: no binding

B2: Core5 (dsDNA)
DNA 1: GGCGCCGATATATCGGAGCG
DNA 2: CGCTCCGATATATCGGCGCC
Ml2
  binding result: binds

B3: Core2 (dsDNA)
DNA 1: GGCGCCGAAATAACGGAGCG
DNA 2: CGCTCCGTTATTTCGGCGCC
Ml2
  binding result: binds

B4: Seq1.1 (dsDNA)
DNA 1: CCACGTCCCTAGTCGCGTCA
DNA 2: TGACGCGACTAGGGACGTGG
Ml2
  binding result: no binding
MucR
  binding result: no binding

B5: Core2mut (dsDNA)
DNA 1: GGCGCCGAAAAAACGGAGCG
DNA 2: CGCTCCGTTTTTTCGGCGCC
Ml2
  binding result: no binding

B6: Core1 (dsDNA)
DNA 1: GGCGCCGAAATAGCGGAGCG
DNA 2: CGCTCCGCTATTTCGGCGCC
Ml2
  binding result: binds

B7: Seq3.1 (dsDNA)
DNA 1: ATTGACGCCCTAATAAGCTA
DNA 2: TAGCTTATTAGGGCGTCAAT
Ml2
  binding result: no binding
MucR
  binding result: no binding

B8: Core4mut (dsDNA)
DNA 1: GCGAAAAAAAAAATTTTGCC
DNA 2: GGCAAAATTTTTTTTTTCGC
Ml2
  binding result: no binding

B9: Seq3.2 (dsDNA)
DNA 1: ATTGACTAAAGCCGAAGCTA
DNA 2: TAGCTTCGGCTTTAGTCAAT
Ml2
  binding result: no binding
MucR
  binding result: no binding

B10: Exoy43bp (dsDNA)
DNA 1: CCACTGAAATAGTCGCGTCATGAATTGACTAAATAATAAGCTA
DNA 2: TAGCTTATTATTTAGTCAATTCATGACGCGACTATTTCAGTGG
Ml2
  binding result: binds
MucR
  binding result: binds

B11: Core4 (dsDNA)
DNA 1: GCGAAAAAAATAATTTTGCC
DNA 2: GGCAAAATTATTTTTTTCGC
Ml2
  binding result: binds

B12: Core3 (dsDNA)
DNA 1: GGCGCCGAAATACCGGAGCG
DNA 2: CGCTCCGGTATTTCGGCGCC
Ml2
  binding result: binds
